Results published in US20120135931A1.

B1: MH22 (peptide)
peptide: MHKTAPPFDFEAIPEEYLDDES
modifications: not checked
B2: MH18 (peptide)
peptide: MHKTAPPFDFEAIPEEYL
modifications: not checked

Legend:
[1] = tested on: s-variegin
[2] = target: human plasma derived thrombin (human), P00734; experiment: cell-based or functional assay

Row | Molecule | cleavage of s-variegin by thrombin at 24° C. (RP-HPLC), extent at 360 min [1] | percent inhibition of thrombin amidolytic activity at equimolar concentration [2]
1 | recombinant α-thrombin (based on human α-thrombin sequence) | 360 min was needed for ~90% of cleavage | 
2 | B1 |  | 15%
3 | B2 |  | 15%
